# Assay results: publication PMC9239255, “Switching off Bacterial Flagellar Biogenesis by YdiU-Mediated UMPylation of FlhDC”
# T1: FlhDC (native, un-UMPylated) (Escherichia coli K-12 MG1655, UniProt P0A8S9;P0ABY7 1-116;1-192)
# T1 sequence 1: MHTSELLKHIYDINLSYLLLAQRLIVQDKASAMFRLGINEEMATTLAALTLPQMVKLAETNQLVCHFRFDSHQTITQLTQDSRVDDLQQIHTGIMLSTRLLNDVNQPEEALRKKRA
# T1 sequence 2: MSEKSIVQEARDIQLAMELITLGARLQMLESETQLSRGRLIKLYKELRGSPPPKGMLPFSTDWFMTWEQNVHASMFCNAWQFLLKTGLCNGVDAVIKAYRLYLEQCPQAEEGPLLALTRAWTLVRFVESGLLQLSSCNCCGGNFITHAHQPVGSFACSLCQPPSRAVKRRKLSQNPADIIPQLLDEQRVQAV
# Biological target: T1, FlhDC (native, un-UMPylated)
# Experiment: EMSA; 10 nM DNA; shift at protein:DNA ratio greater than 1
# Details: protein: recombinant; tags: none apparent (pET21b; reverse primer carries stop codon); chain copies: 4;2; label: 5'-FAM on strand 1 (Methods call both oligos FAM-flhB); blunt
binder,measurement,value
pflhB (flhB promoter) (dsDNA) DNA 1: ATTAACGCCATAAACCCCGCCTTTTTTACCGCTTACTCTGCCTATTGGCGT DNA 2: ACGCCAATAGGCAGAGTAAGCGGTAAAAAAGGCGGGGTTTATGGCGTTAAT,binding result,binds
